According to the supplement of paper PMC10266784:

B1: library; numbered along this chain (parent)
chain: MAAAAAAAAEQQSSNGPVKKSMREKAVERRSVNKEHNSNFKAGYIPIDEDRLHKTGLRGRKGNLAICVIILLFILAVINLIITLVIWAVIRIGPNGCDSMEFHESGLLRFKQVSDMGVIHPLYKSTVGGRRNENLVITGNNQPIVFQQGTTKLSVENNKTSITSDIGMQFFDPRTQNILFSTDYETHEFHLPSGVKSLNVQKASTERITSNATSDLNIKVDGRAIVRGNEGVFIMGKTIEFHMGGNMELKAENSIILNGSVMVSTTRLPSSSSGDQLGSGDWVRYKLCMCADGTLFKVQVTSQNMGCQISDNPCGNTH

Variants of: B1
Test: SGCB cell-surface expression functional score (HA stain, bin4 vs bin1, normalised to synonymous) (log10 ratio); higher = more cell-surface SGCB (functional)
Protocol: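 Deep mutational scan of full-length human SGCB (YFP-SGCB-HA, NNN codon sublibraries A-F) delivered by lentivirus at low MOI into ADG-HEK293 cells stably expressing SGCA, SGCD and SGCG. YFP-positive cells were stained for surface HA on unpermeabilized cells and FACS-sorted into bins. The functional score is log10(frequency in high bin 4 / frequency in low bin 1), normalised per chunk so that synonymous variants have mean 0 and SD 0.5. Scores are the median over codons and over duplicate biological replicates; scores below -0.5 are called non-functional. Scale: negative means deleterious.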

SGCB cell-surface expression functional score (log10): each site, then its substitutions
Y44: G 0.59 | Q 0.8 | P 0.61 | E 0.75 | T 0.39 | L 0.55 | M 0.39 | K 0.04 | A 0.04 | W 0.07 | C 0.8 | N -0.24 | S 0.14 | V 0.64 | R 0.08 | H 0.01 | I 0.42 | F 0.02 | D 0.53
S38: Q -0.18 | V -0.31 | Y -0.07 | R -0.01 | T -0.04 | W -0.17
F40: C 0.25 | T 0.19 | I 0.24 | A 0.18 | L -0.13 | R -0.05 | K 0.55 | D 0.12 | M -0.28 | V 0.27 | H -0.44 | S 0.16 | W -0.21 | E 0.01 | P -0.13 | Q 0.03 | G -0.49 | N -0.16 | Y 0.49
P46: S 0.15 | Q 0.28 | H 0.31 | F 0.22 | G 0.65 | E 0.1 | C 0.44 | V -0.23 | K -0.07 | L -0.2 | I 0.27 | T 0.21 | M 0 | N 0.18 | W -0.33 | A -0.03 | Y 0.03 | D -0.14 | R -0.18
K41: T 0.26 | N 0.25 | L 0.1 | A 0.77 | P 0.21 | F -0.47 | W 0.02 | S 0.28 | Y -0.07 | C -0.2 | M 0.55 | H 0.22 | D -0.08 | I -0.28 | R -0.25 | V 0.04 | G -0.27 | Q 0.4 | E 0.61
I45: D 0.9 | T 0.15 | W 0.91 | H 0.03 | S -0.08 | G -0.04 | F -0.02 | M 0.43 | R -0.17 | N 0.15 | K -0.41 | Y 0.68 | A 0.33 | C -0.09 | V 0.48 | Q -0.67 | E 0.23 | L -0.03 | P 0.52
G43: T 0.05 | F -0.52 | E 0.18 | S 0.34 | K 0.2 | C -0.02 | Q 0.32 | D 0.22 | A 0.25 | L -0.21 | Y -0.59 | I -0.07 | V 0.07 | H 0.33 | W 0.34 | R 0.51 | N 0.18 | M -0.74 | P 0.76
I47: C 0.31 | A 0.17 | G 0.36 | F -0.49 | K 0.52 | D 0.59 | H 0.63 | E 0.72 | L -0.14
A42: R -0.08 | M 0.33 | P 0.02 | L -0.02 | Y -0.17 | E 0.71 | N -0.67 | Q -0.07 | C 0.21 | S 0.1 | D -0.28 | K 0.18 | I -0.45 | G 0.22 | W 0.29 | F -0.42 | T 0.1 | H -0.08 | V -0.08
N39: S 0.02 | A -0.05 | D 0.41 | R -0.29 | V 0.44 | T -0.1 | M -0.61 | H -0.1 | F -0.12 | Q 0.07 | C 0.2 | L -0.02 | K 0.08 | I -0.18 | P -0.17 | E 0.54 | G 0.13 | W -0.81 | Y -0.08
